Data reported in paper PMC3642092.

Target: F-actin (filamentous rabbit skeletal muscle actin) (rabbit), P68135
Experiment: co-sedimentation
Conditions: remark: other sources report otherwise

B1: utrophin actin binding domain, utrophin residues 1-261 (UTR261), wildtype, P46939 1-261 (domain or fragment)
chain: MAKYGEHEASPDNGQNEFSDIIKSRSDEHNDVQKKTFTKWINARFSKSGKPPINDMFTDLKDGRKLLDLLEGLTGTSLPKERGSTRVHALNNVNRVLQVLHQNNVELVNIGGTDIVDGNHKLTLGLLWSIILHWQVKDVMKDVMSDLQQTNSEKILLSWVRQTTRPYSQVNVLNFTTSWTDGLAFNAVLHRHKPDLFSWDKVVKMSPIERLEHAFSKAQTYLGIEKLLDPEDVAVQLPDKKSIIMYLTSLFEVLPQQVTID
With B1 the Kd was 19.2 µM and the stoichiometry N was 1.
